Target: T1, PcnR (plasmid copy number repressor, ProQ/FinO family) (Escherichia coli IncI2 plasmid pHNSHP45, UniProt Q9F577 1-198)
T1 sequence: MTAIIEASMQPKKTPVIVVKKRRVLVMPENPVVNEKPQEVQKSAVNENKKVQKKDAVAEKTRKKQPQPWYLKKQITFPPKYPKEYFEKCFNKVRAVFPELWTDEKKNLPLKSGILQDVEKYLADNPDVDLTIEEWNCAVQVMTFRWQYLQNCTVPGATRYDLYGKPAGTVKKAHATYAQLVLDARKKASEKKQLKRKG
Assay: EMSA

B1: first stem-loop (SL) of repR mRNA, 47 nt (structured_RNA)
RNA: CUGAAGUGGAGUUUAAUUCCAUGAGAAGGAAAUAUCAACUCUUACAG
  binding result: binds

— publication PMC8053102
